# Where a chain is given by its changes, count along the chain named.
# B1: Parental IRTCA-A Fab (Fab, V domains shown)
# VH: QVQLVQSGTQVKMPGASVKVSCKASGYTFDDYGIGWVRQAPGQGLEWMGWISPYTHRTNSSPKLQDRVTMTTDTSTSTAYMELRSLRSDDTAVYYCARDGTYYDFWSGYFDNGAFDIWGQGTLVTVSS
# VL: QSVVTQPPSVSAAPGQKVTISCSGSTSNIGNNYVSWYQQLPGTAPKLLIYDNYKRPSGIPDRFSGSKSGTSATLGITGLRTGDEADYFCGTWDSSLNAWVFGGGTKLTVL
# B2: IRTCA-A15 (Clone H1F1) Fab (Fab, V domains shown)
# VH: B1 VH with G113N
# VL: B1 VL
# B3: IRTCA-A14 (Clone H2F8) Fab (Fab, V domains shown)
# VH: B1 VH with N112T, G113A
# VL: B1 VL
# B4: IRTCA-A10 (Clone H1A10) Fab (Fab, V domains shown)
# VH: B1 VH with G113A, I117S
# VL: B1 VL
# B5: IRTCA-A12 (Clone H2A10) Fab (Fab, V domains shown)
# VH: B1 VH with G113A, A114T, I117F
# VL: B1 VL
# B6: IRTCA-A1 (Clone L1E9) Fab (Fab, V domains shown)
# VH: B1 VH
# VL: B1 VL with T91S, D93E, S95G, L96S, W99Y, V100K
# B7: IRTCA-A (A27) anti-AITR monoclonal antibody (antibody, V domains shown)
# VH: B1 VH
# VL: B1 VL
# notes: Monoclonal antibody form, detected with anti-human IgG-HRP; constant regions not specified for this antibody
# B8: H1F1.M69 (H1F1.H2.J1/H1F1.L3.J1) (antibody, V domains shown)
# VH: QVQLVQSGAQVKMPGESLKVSCKASGYTFTDYGMGWVRQAPGQGLEWMGWISPYTGRTNSSDKFQGRVTMTRDTSTSTAYMELRSLRSEDTAVYYCARDGTYYDFWSGYFDNNAFDIWGQGTLVTVSS
# VL: B1 VL with A12G, K17R, I59V, T73S, G75A, R80Q, G82E, F88Y
# notes: Made in Expi293 cells from HC and LC DNA
# B9: H1F1 anti-AITR monoclonal antibody (antibody, V domains shown)
# VH: B1 VH with G113N
# VL: B1 VL
# notes: Bivalent antibody captured by anti-human IgG(Fc); constant regions not specified for this antibody; also called parent antibody H1F1
# B10: H1F1.M74 (H1F1.H8/H1F1.L3.J2) (antibody, V domains shown)
# VH: B8 VH with T30D, G44C
# VL: QSVVTQPPSVSGAPGQRVTISCSGSTSNIGNNYVSWYQQLPGTAPKLLIYDNYKRPSGVPDRFSGSKSGTSASLAITGLQSEDEADYYCGSWESGSNAYKFGGGTKLTVL
# notes: as for B8
# Molecular target: T1, Glutathione S-transferase (GST)-tagged AITR (human, UniProt Q9Y5U5 26-139)
# T1 construct: also called GST-AITR antigen; GST-AITR analyte; not shown: Glutathione S-transferase (GST) tag
# T1 sequence (looked up): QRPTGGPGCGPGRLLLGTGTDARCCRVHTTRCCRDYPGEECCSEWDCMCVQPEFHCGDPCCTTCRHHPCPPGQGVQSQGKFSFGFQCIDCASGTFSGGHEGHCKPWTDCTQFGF
# Experiment: KD ratio against parental IRTCA-A, repeated from the SPR of Table 3
row,Binder,KD Ratio [fold]
1,B1,1
2,B2,44.4
3,B3,30.1
4,B4,8.4
5,B5,27.6
6,B6,8.2

# Molecular target: T1, Glutathione S-transferase (GST)-tagged …
# Experiment: as above
# Remark: another data set of the same source
row,Binder,KD Ratio [fold]
1,B1,1
2,B2,44.4
3,B3,30.1
4,B4,8.4
5,B5,27.6
6,B6,8.2

# Molecular target: T2, human AITR expressed on the cell surface (human, UniProt Q9Y5U5 26-241)
# T2 sequence (looked up): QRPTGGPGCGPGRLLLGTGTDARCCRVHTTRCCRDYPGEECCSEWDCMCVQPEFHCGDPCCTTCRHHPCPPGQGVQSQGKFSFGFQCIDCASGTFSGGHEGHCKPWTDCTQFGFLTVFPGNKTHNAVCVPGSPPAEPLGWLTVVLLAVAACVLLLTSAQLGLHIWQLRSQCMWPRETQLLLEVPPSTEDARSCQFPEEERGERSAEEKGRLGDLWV
# Experiment: cell-based or functional assay
row,Binder,"secretion of IFN-γ by CD4+ T cells at 0.5 µg, against IRTCA-A [%]"
1,B2,≥ 200
2,B3,≥ 200
3,B5,≥ 200

# Molecular target: T3, R12 AA 75-139
# T3 construct: also called GST fusion protein construct R12 (AITR deletion mutant)
# T3 GST fusion protein: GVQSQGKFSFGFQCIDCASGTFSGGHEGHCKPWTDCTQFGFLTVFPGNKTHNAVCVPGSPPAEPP
# Experiment: Western blot and ELISA on GST-AITR deletion constructs
# Procedure: Binding of the anti-AITR antibodies IRTCA-A (A27), H1F1, H1F1M69 and H1F1M74 to the GST-fusion proteins R1-R12 was assessed using Western blot analysis, in which the GST-fusion proteins were resolved by 12% SDS-PAGE and subjected to immunoblotting using the antibodies IRTCA-A, H1F1, H1F1M69 and H1F1M74. Anti-Human IgG-HRP (1:5000; Jackson Laboratories, Bar Harbor, Me.) was used as the secondary antibody. Detection of chemiluminescence was obtained by using SuperSignal West Pico Chemiluminescent Substrate (Pierce, Rockford, Ill.).
row,Binder,binding result
1,B7,no binding
2,B8,no binding
3,B9,no binding

# Molecular target: T1, Glutathione S-transferase (GST)-tagged …
# Experiment: SPR (Biacore T200), antibody captured by anti-human IgG(Fc), GST-AITR analyte 3.12-100 nM
# Procedure: This example assesses the ability of mutant anti-AITR antibodies to bind to an AITR antigen recognized by the parent antibody, H1F1. Surface plasmon resonance was used in order to determine the ability of mutant anti-AITR antibodies to bind to AITR.
# A Biacore T200 with a CMS sensor chip was run using HBS-EP running buffer at pH 7.4 and 3M magnesium chloride regeneration buffer. Anti-human IgG(Fc) antibodies were immobilized to the CMS chip via amine coupling and 6 minute injections at a flow rate of 5 μL/minute were performed with an immobilization buffer of 10 mM sodium acetate at pH 5.0. The capture antibodies tested were parent antibody H1F1 and mutant antibodies M69 and M74. Glutathione S-transferase (GST)-tagged AITR analyte was injected at concentrations of 3.12, 6.25, 12.5, 25, 50 and 100 nM, with an association time of 150 seconds and a dissociation time of 240 seconds.
row,Binder,Kd [nM]
1,B8,0.657
2,B9,0.789
3,B10,0.966

# Molecular target: T1, Glutathione S-transferase (GST)-tagged …
# Experiment: KD ratio against parental IRTCA-A, repeated from the SPR of Table 3
# Remark: another data set of the same source
row,Binder,KD Ratio [fold]
1,B1,1
2,B2,44.4
3,B3,30.1
4,B4,8.4
5,B5,27.6
6,B6,8.2

# Molecular target: T1, Glutathione S-transferase (GST)-tagged …
# Experiment: SPR, Fab against the AITR antigen
Binder,Ka [M⁻¹],Kd [nM],koff [s⁻¹],kon [M⁻¹ s⁻¹]
B1,8.74e+06,114,0.00134,11700
B2,3.9e+08,2.57,0.000334,130000
B3,2.64e+08,3.79,0.00027,71100
B4,7.34e+07,13.6,0.000565,41500
B5,2.42e+08,4.13,0.000288,69700
B6,7.18e+07,13.9,0.000412,29600

# Molecular target: T1, Glutathione S-transferase (GST)-tagged …
# Experiment: SPR, Fab against the AITR antigen; ratio against parental IRTCA-A
row,Binder,KD Ratio [fold]
1,B1,1
2,B2,44.4
3,B3,30.1
4,B4,8.38
5,B5,27.6
6,B6,8.2
